Test [1] deals with human glucagon-like peptide 1 receptor (GLP-1 R) (human, UniProt P43220 24-463). Nature of the test: cell-based or functional assay.
Test [2] has as its target T1, human GLP-2 receptor (hGLP2-R) (human, UniProt O95838 1-553).
T1 sequence (looked up): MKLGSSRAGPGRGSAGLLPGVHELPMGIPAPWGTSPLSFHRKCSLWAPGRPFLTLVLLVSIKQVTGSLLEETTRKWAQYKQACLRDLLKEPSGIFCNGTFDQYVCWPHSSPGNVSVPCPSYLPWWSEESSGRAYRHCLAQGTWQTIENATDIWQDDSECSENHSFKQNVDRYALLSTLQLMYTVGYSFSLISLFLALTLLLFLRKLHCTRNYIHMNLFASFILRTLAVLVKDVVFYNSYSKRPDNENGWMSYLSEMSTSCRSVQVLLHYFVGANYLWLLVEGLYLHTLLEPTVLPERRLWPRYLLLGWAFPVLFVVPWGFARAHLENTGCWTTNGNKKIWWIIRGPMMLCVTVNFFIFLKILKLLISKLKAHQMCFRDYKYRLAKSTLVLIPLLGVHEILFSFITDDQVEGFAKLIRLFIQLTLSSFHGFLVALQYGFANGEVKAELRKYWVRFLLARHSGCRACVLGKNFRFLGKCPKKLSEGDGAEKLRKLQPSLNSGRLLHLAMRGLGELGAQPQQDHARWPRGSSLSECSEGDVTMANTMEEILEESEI
The test can be described thus: cell-based or functional assay.

B1: Compound 30 (peptide)
peptide: HXEGSFTSELATILDXQAARDFIAWLIRHKITD
HELM: PEPTIDE1{H.[Aib].E.G.S.F.T.S.E.L.A.T.I.L.D.K.Q.A.A.R.D.F.I.A.W.L.I.R.H.K.I.T.D}|PEPTIDE2{[O=C(O)CCCCCCCCCCCCCCCCC(=O)[*:2]].[gGlu]}$PEPTIDE1,PEPTIDE2,16:R3-2:R2$$$V2.0
SMILES: CC[C@H](C)[C@H](NC(=O)[C@H](Cc1ccccc1)NC(=O)[C@H](CC(=O)O)NC(=O)[C@H](CCCNC(=N)N)NC(=O)[C@H](C)NC(=O)[C@H](C)NC(=O)[C@H](CCC(N)=O)NC(=O)[C@H](CCCCNC(=O)CC[C@H](NC(=O)CCCCCCCCCCCCCCCCC(=O)O)C(=O)O)NC(=O)[C@H](CC(=O)O)NC(=O)[C@H](CC(C)C)NC(=O)[C@@H](NC(=O)[C@@H](NC(=O)[C@H](C)NC(=O)[C@H](CC(C)C)NC(=O)[C@H](CCC(=O)O)NC(=O)[C@H](CO)NC(=O)[C@@H](NC(=O)[C@H](Cc1ccccc1)NC(=O)[C@H](CO)NC(=O)CNC(=O)[C@H](CCC(=O)O)NC(=O)C(C)(C)NC(=O)[C@@H](N)Cc1c[nH]cn1)[C@@H](C)O)[C@@H](C)O)[C@@H](C)CC)C(=O)N[C@@H](C)C(=O)N[C@@H](Cc1c[nH]c2ccccc12)C(=O)N[C@@H](CC(C)C)C(=O)N[C@H](C(=O)N[C@@H](CCCNC(=N)N)C(=O)N[C@@H](Cc1c[nH]cn1)C(=O)N[C@@H](CCCCN)C(=O)N[C@H](C(=O)N[C@H](C(=O)N[C@@H](CC(=O)O)C(=O)O)[C@@H](C)O)[C@@H](C)CC)[C@@H](C)CC
In the case of B1, the “EC50 GLP-1 (nM); cAMP response” value in test [1] is 0.31 nM. For the same molecule, the “EC50 GLP-2 (nM); cAMP response” value in test [2] is 0.38 nM.

B2: Compound 31 (peptide)
peptide: HXEGSFTSELATILDXQAARDFIAWLISHKITD
HELM: PEPTIDE1{H.[Aib].E.G.S.F.T.S.E.L.A.T.I.L.D.K.Q.A.A.R.D.F.I.A.W.L.I.S.H.K.I.T.D}|PEPTIDE2{[O=C(O)CCCCCCCCCCCCCCCCC(=O)[*:2]].[gGlu]}$PEPTIDE1,PEPTIDE2,16:R3-2:R2$$$V2.0
SMILES: CC[C@H](C)[C@H](NC(=O)[C@H](Cc1ccccc1)NC(=O)[C@H](CC(=O)O)NC(=O)[C@H](CCCNC(=N)N)NC(=O)[C@H](C)NC(=O)[C@H](C)NC(=O)[C@H](CCC(N)=O)NC(=O)[C@H](CCCCNC(=O)CC[C@H](NC(=O)CCCCCCCCCCCCCCCCC(=O)O)C(=O)O)NC(=O)[C@H](CC(=O)O)NC(=O)[C@H](CC(C)C)NC(=O)[C@@H](NC(=O)[C@@H](NC(=O)[C@H](C)NC(=O)[C@H](CC(C)C)NC(=O)[C@H](CCC(=O)O)NC(=O)[C@H](CO)NC(=O)[C@@H](NC(=O)[C@H](Cc1ccccc1)NC(=O)[C@H](CO)NC(=O)CNC(=O)[C@H](CCC(=O)O)NC(=O)C(C)(C)NC(=O)[C@@H](N)Cc1c[nH]cn1)[C@@H](C)O)[C@@H](C)O)[C@@H](C)CC)C(=O)N[C@@H](C)C(=O)N[C@@H](Cc1c[nH]c2ccccc12)C(=O)N[C@@H](CC(C)C)C(=O)N[C@H](C(=O)N[C@@H](CO)C(=O)N[C@@H](Cc1c[nH]cn1)C(=O)N[C@@H](CCCCN)C(=O)N[C@H](C(=O)N[C@H](C(=O)N[C@@H](CC(=O)O)C(=O)O)[C@@H](C)O)[C@@H](C)CC)[C@@H](C)CC
In the case of B2, the “EC50 GLP-1 (nM); cAMP response” value in test [1] amounted to 0.27 nM. For the same molecule, the “EC50 GLP-2 (nM); cAMP response” value in test [2] was determined as 0.24 nM.
